We go through 9 molecules from patent publication US20110162109A1 (BASF PLANT SCIENCE, published 2011).

Sequences and labels used below:
T1: HUB2, At1g55250, Arabidopsis thaliana (Arabidopsis thaliana, UniProt Q9C895 1-900)
T1 construct: As prey the endogenous protein of Arabidopsis cell culture; as bait N-terminal GS-TAP fusion; in yeast two-hybrid an AD fusion; also called AAG51572.1
T1 sequence: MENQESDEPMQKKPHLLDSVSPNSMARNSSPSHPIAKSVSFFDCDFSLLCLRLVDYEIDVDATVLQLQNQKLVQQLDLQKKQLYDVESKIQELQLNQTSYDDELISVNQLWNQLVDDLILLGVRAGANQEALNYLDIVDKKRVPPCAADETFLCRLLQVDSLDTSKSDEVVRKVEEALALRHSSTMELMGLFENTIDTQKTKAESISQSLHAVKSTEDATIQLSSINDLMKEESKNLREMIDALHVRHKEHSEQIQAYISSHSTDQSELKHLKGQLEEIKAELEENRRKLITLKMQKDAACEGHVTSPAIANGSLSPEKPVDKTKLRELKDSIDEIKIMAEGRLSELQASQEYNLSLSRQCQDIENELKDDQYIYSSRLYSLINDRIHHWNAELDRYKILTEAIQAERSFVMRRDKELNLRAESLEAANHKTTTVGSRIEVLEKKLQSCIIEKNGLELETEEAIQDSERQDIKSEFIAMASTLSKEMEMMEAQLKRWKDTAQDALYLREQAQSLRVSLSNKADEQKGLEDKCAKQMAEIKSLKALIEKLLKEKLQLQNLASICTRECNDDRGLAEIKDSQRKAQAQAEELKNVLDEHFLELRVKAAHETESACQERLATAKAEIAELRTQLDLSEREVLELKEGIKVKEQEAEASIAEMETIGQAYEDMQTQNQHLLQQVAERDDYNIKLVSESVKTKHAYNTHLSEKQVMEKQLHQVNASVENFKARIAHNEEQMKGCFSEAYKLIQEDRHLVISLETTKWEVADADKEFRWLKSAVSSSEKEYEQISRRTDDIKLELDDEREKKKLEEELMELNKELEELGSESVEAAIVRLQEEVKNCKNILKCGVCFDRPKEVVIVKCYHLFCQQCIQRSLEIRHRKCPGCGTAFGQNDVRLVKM

B1: HUB1 (Histone Monoubiquitination 1), At2g44950, Arabidopsis thaliana (enzyme)
chain: MASTGEPDRKRRHFSSISPSEAAAAVKKQPFFWPSSEDKLDTAVLQFQNLKLSQKLEAQQVECSILEDKLSQIKEKQLPYNSSLKTVHKSWEKLTASVESCSVRVSDSSSGAHRFVNKEDGSSPAVKNDFINRLLETGATESSSSNICSNQMEENGVNTSSQMTQTLYNLVAATEDLRCLKDELYPTVLRTNLGKDLCGQLALSELESEIKSFRGDLDDVLVKFKSLSRELQSHRDADAKVRVDLKRIRGELEDEVVELQQCNGDLSALRAERDATAGAFFPVLSLGNKLATSDRERDKQRDLQDMETVLKELTVLASGRLQQLKNLHEERTKMLGKMSNLQNKSKSVRCISSSQACLSLKDQLEKSKEAVFQYMALLEKLQVEKDSIVWKEREINIKNELGDVSRKTSAVTDSRMASLDSEIQKQLDEKMRIKTRLGNISRERGRKEIFADMKALISSFPEEMSSMRSQLNNYKETAGGIHSLRADVQSLSGVLCRKTKEYEALQLRSADYASQLGDLNATVCDLKNSHEELKLFLDMYKRESTDARDIAEAKEQEYRAWAHVQSLKSSLDEQNLELRVKAANEAEAVSQQMLAAAEAEIADLRQKMDDCKRDVAKHSDILKSKHEEHGTYLSEIQTIGSAYEDIVPQNQRLLLQVTERDDYNIKLFLEGITSRQMQDTLLIDKYIMDKDIQQGSAYASFLSKKSSRIEDQLRFCTDQFQKLAEDKYQKSVSLENLQKKRADIGNGLEQARSRLEESHSKVEQSRLDYGALELELEIERFNRRRIEEEMEIAKKKVSRLRSLIEGSSAIQKLRQELSEFKEILKCKACNDRPKEVVITKCYHLFCNPCVQKLTGTRQKKCPTCSASFGPNDIKPIYI
notes: Full length HUB1; In the TAP experiments N-terminally fused to the TAP tag or the GS-TAP tag; in yeast two-hybrid fused to AD (pDEST22) or BD (pDEST32); all these constructs are written under this one entry; also called HUB1fl; full length HUB1
B2: UBC2, At2g02760 (enzyme, Arabidopsis thaliana, UniProt P42745 1-152, looked up)
chain: MSTPARKRLMRDFKRLQQDPPAGISGAPQDNNIMLWNAVIFGPDDTPWDGGTFKLSLQFSEDYPNKPPTVRFVSRMFHPNIYADGSICLDILQNQWSPIYDVAAILTSIQSLLCDPNPNSPANSEAARMFSESKREYNRRVREVVEQSWTAD
notes: As bait N-terminal GS-TAP fusion; fusion protein in yeast two-hybrid; also called E2 conjugating enzyme UBC2
B3: UBC1 (E2 conjugating enzyme, Arabidopsis thaliana) (enzyme, UniProt P25865 1-152, looked up)
chain: B2 chain with F130Y, E143D
notes: Yeast two-hybrid fusion
B4: UBC3 (E2 conjugating enzyme, Arabidopsis thaliana) (enzyme, UniProt P42746 1-150, looked up)
chain: MTTPAKKRLMWDFKRLQKDPPVGISGAPQDNNIMHWNALIFGPEDTPWDGGTFKLTLHFTEDYPNKPPIVRFVSRMFHPNIYADGSICLDILQNQWSPIYDVAAVLTSIQSLLCDPNPDSPANAEAARLFSENKREYNRKVIEIVEQSYV
notes: Yeast two-hybrid fusion

Series [1] deals with Spen like protein, At1g27750 (Arabidopsis thaliana). The series is described as follows: GS-TAP purification + MALDI-TOF-TOF MS, bait SL (a); expectance is the MS identification score.
The target is the same in series [2]. The experiment in a line: GS-TAP purification + MALDI-TOF-TOF MS, bait SL (b); expectance is the MS identification score.
The target in series [3] is HUB1 (Histone Monoubiquitination 1), At2g44950, Arabidopsis thaliana (Arabidopsis thaliana) (UniProt Q8RXD6). The experiment in a line: GS-TAP purification + MALDI-TOF-TOF MS, bait HUB1 (b); expectance is the MS identification score.
Series [4] deals with T1, HUB2, At1g55250, Arabidopsis thaliana. The series is described as follows: GS-TAP purification + MALDI-TOF-TOF MS, bait HUB2 (a); expectance is the MS identification score.
Series [5] has the same target. The experiment in a line: GS-TAP purification + MALDI-TOF-TOF MS, bait HUB2 (b); expectance is the MS identification score.
Series [6] has as its target HUB1 (Histone Monoubiquitination 1), At2g44950, Arabidopsis thaliana (Arabidopsis thaliana) (UniProt Q8RXD6). The experiment in a line: GS-TAP purification + MALDI-TOF-TOF MS, bait HUB1 (a′); expectance is the MS identification score.
Series [7] shares this target. The series is described as follows: GS-TAP purification + MALDI-TOF-TOF MS, bait HUB1 (b′); expectance is the MS identification score.
Series [8] addresses UBC2, At2g02760 (Arabidopsis thaliana) (UniProt P42745). The series is described as follows: GS-TAP purification + MALDI-TOF-TOF MS, bait UBC2 (third block); expectance is the MS identification score.
Series [9] addresses SEUSS, At1g43850 (Arabidopsis thaliana) (UniProt Q8W234). The series is described as follows: GS-TAP purification + MALDI-TOF-TOF MS, bait SEUSS (a); expectance is the MS identification score.
Series [10] has the same target. The experiment in a line: GS-TAP purification + MALDI-TOF-TOF MS, bait SEUSS (b); expectance is the MS identification score.
The target in series [11] is histone H2B.
Series [12] deals with the molecule itself. The experiment in a line: TAP with N-terminally TAP-tagged HUB1 from Arabidopsis cell culture, mass spectrometry; column Confirmed. How it is done: Because the RING proteins have their functionally important domain at the C-terminus, an N-terminal fusion was prepared instead of the traditional C-terminal fusion by cloning both full length and the point mutant form of HUB1 (HUB1pm, HUB1fl). The Arabidopsis cell cultures were transformed with the two constructs and cultivated on 10 litre scale, harvested and purified by TAP (Van Leene et al., Mol. Cell. Proteomics 6, 1226-38, 2007). The protein extracts were separated on 1-D SDS-PAGE gels and isolated from gel for protein identification by mass spectrometry (Laukens et al., Proteomics. 4, 720-7, 2004, Van Leene et al., 2007). Two cut offs were used resulting in “confirmed” and “to be confirmed” candidate interactor lists (Table I).
In the data set of confirmed interactors TAP HUB1 and HUB2 were present, […] the dimer formation between the homologues. In addition, the acetyltransferase GCN5, RNA binding proteins and a KH domain protein were identified as HUB1 interacting proteins. Most of these proteins are known to be localized in nucleus or nucleoli. GFP constructs of HUB1 have also been localized to nucleus (Liu et al., 2007). When HUB1pm was used for TAP purification no HUB2 could be identified as an interacting protein.

Series [13] addresses B1. The series is described as follows: yeast two-hybrid.
Series [14] addresses T1, HUB2, At1g55250, Arabidopsis thaliana. The experiment in a line: yeast two-hybrid.

Substitutions are numbered along the chain they refer to.

Sequence of SEUSS, At1g43850 (Arabidopsis thaliana) (Q8W234 whole entry): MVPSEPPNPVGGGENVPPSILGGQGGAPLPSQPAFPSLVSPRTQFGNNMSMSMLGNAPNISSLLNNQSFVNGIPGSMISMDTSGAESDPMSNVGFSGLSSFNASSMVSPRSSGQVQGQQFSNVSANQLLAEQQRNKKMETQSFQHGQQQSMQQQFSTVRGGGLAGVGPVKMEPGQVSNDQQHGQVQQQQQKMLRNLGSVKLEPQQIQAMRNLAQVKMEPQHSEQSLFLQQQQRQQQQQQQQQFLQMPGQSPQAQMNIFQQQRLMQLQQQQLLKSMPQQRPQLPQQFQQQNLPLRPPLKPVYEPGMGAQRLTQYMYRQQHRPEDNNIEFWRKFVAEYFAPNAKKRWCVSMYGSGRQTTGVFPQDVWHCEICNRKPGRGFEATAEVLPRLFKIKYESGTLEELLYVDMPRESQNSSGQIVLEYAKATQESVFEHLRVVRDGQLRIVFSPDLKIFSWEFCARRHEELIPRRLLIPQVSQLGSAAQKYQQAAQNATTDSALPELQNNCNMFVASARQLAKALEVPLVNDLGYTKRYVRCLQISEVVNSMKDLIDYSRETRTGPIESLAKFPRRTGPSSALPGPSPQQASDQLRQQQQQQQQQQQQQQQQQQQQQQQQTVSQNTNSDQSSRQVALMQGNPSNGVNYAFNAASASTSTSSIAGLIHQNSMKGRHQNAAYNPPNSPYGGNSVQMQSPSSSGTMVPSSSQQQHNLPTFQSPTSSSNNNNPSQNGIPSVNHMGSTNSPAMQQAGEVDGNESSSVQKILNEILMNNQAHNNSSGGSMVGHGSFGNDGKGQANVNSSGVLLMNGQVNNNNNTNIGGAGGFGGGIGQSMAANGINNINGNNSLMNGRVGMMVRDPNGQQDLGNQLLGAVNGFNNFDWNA

In the case of KH domain protein, At1g51580, the Expectance stood at 0.00054 in [1]; 2.6e-12 in [2]; 1.6e-08 in [3]; 1.3e-08 in series [4]; 1.6e-09 in series [5]; 2.1e-09 in series [6]. Also, in [7], the Expectance came to 3.3e-09.

Consider “AtUBA1, AT2G30110 (from UniProt P93028 1-1080) (enzyme)”, for which the Expectance in series [8] worked out at 0.00082.

On to Spen like protein, At1g27750, for which the Expectance in [4] is 0.00097; in series [5] it was 1e-24; in [6] it was 6.5e-16; in [7], 0.024.

“AtUBA2, AT5G06460 (from UniProt P92974 1-1077) (enzyme)”: the Expectance in [8] is 0.00026.

Regarding “LUH, At2G32700 (from UniProt O48847 1-787)”, the Expectance in series [9] worked out at 3.3e-99; in series [10], 2.1e-82.

As to B1, in series [11], the “monoubiquitination of histone H2B in the in vitro ubiquitination assay (protein gel blot)” value is “shift of H2B by 10 kDa”. Also, the binding result in [12] is “binds”.

Turning to B2, the binding result in [13] and in series [14] was “no binding” in each case.

B3: the binding result in series [13] and in series [14] was “no binding” in each case.

Consider B4, for which the binding result in series [13] and in [14] was “no binding” each time.
